Data: PMC8617193

Biological target: NFS1 as crystallised in the (NIAU2)2 complexes (human)
Assay: crystal structure; (NIAU2)2 complexes with wild-type or mutant ISCU2, 16-18 mg/ml, sitting drop, 0.1 M MES pH 6.5, 22.5% PEG-400, 15 °C; space group P41212; 1.57-1.95 Å

**Q.** With “NFS1 as crystallised in the (NIAU2)2 complexes (enzyme)” as the substance, how does the stoichiometry N read?
**A.** The stoichiometry N was 2.
